Assay results taken from patent US20260201033A1 (LTZ THERAPEUTICS, published 2026).

Experiments:
[1] = target: T1, Human CLEC5A His Tag protein (ACROBiosystems, Cat #: CLA-H5243) (human, UniProt Q9NY25 28-188, limits assumed); assay: ELISA, plate coated with human CLEC5A
T1 construct: Bought protein with a His tag; also called recombinant human CLEC5A protein
T1 sequence: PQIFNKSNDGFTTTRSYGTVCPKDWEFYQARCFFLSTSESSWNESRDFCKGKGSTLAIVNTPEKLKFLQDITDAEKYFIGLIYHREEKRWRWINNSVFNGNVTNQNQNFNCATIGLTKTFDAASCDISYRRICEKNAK
Experimental: Protein antigen was aspirated, and wells were washed 3 times with 400 μL of wash buffer (0.05% Tween® 20 in PBS) using a plate washer. Anti-CLEC5A antibodies were prepared as the primary antibody at 5 μg/mL and serially diluted 3-fold through 11 points (diluted concentrations) with reagent buffer (PBS+0.05% BSA). 100 μL of primary antibody was added to appropriate wells and incubated for 1 hour at room temperature. Primary antibody was aspirated, and wells were washed 3 times with 400 μL of wash buffer (0.05% Tween® 20 in PBS) using a plate washer. […] Secondary antibody was aspirated, and wells were washed 3 times with 400 μL of wash buffer (0.05% Tween® 20 in PBS) using a plate washer. […] 100 μL of Fisher 1N Sulfuric Acid (Cat #: SA212-2) stop solution was added to each well and the plate was read in a plate reader at 450 nm. For analysis, OD450 of each antibody was plotted using GraphPad Prism software (Version 9.4.1; GraphPad Software Inc.).

[2] = target: T2, CD79b on Ramos cells and on endogenous B cells of human PBMCs (human, UniProt P40259 29-229); assay: cell-based or functional assay
T2 sequence (looked up): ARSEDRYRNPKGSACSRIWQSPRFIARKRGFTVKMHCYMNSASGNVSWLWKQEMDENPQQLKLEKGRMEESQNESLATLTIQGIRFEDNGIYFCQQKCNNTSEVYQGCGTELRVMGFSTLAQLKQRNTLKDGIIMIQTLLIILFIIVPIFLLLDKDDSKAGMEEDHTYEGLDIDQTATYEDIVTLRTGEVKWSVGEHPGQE

[3] = target: T2, CD79b on Ramos cells and on endogenous …; assay: cell-based or functional assay; remark: listed apart in the source
[4] = target: T2, CD79b on Ramos cells and on endogenous …; assay: cell-based or functional assay; remark: listed apart in the source
[5] = target: T2, CD79b on Ramos cells and on endogenous …; assay: cell-based or functional assay; remark: listed apart in the source

B1: h6A5, humanized anti-CLEC5A antibody (antibody, V domains shown)
VH: EQQLVESGGGLVQPGGSLRLSCSASGFSFSSSYYMCWVRQAPGKGLELIACIYSSSGRTWYATWVNGRFTISRDTSKNTVYLQMNSLRAEDTAVYFCARSYAGYGGYGYAYFNLWGPGTLVTVSS
VL: EIVMTQSPATLSVSPGERATLSCQASEDIYSSLAWYQQKPGQRPRLLIYDASTLASGVPARFSGSGSGTEYTLTISSLQSEDFAVYYCQNYYDSTGSGYGAAFGGGTKVEIK
notes: also called humanized 6A5
EC50 [1]: 0.33 nM

B2: h13E6, humanized anti-CLEC5A antibody (antibody, V domains shown)
VH: EQQLLESGGGLVQPGGSLRLSCAASGFSFSSSYWLCWVRQAPGKGLEWIACIYGGSSRGTYYASWAKGRFTISKDSSKNTVYLQMNSLRAEDTAVYFCASHTYTYPRFSPYFNLWGPGTLVTVSS
VL: EFVMTQSPATLSVSPGERATLSCQASEDIESSLAWYQQKPGQPPRLLIYDASDLESGVPARFSGSGSGTEYTLTISSLQSEDFAVYFCQSAYYTGSADNTFGGGTKVEIK
notes: also called humanized 13E6
EC50 [1]: 0.12 nM

B3: CD79b/5C7 (2+1 A) Fc-optimized (bispecific antibody, human IgG1, kappa)
heavy 1: EQQLVETGGGLIQPGGSLRLSCAASGFTINIDYWISWVRQAPGKGLEWIGIIDPGDGTTYFAIWVSGRFTISFDNSKNTVYLQMNSLRAEDTAVYFCVREFSASAYQYDLWGPGTLVTVSSASTKGPSVFPLAPSSKSTSGGTAALGCLVKDYFPEPVTVSWNSGALTSGVHTFPAVLQSSGLYSLSSVVTVPSSSLGTQTYICNVNHKPSNTKVDKKVEPKSCDGGGGSGGGGSGGGGSEQQLVETGGGLIQPGGSLRLSCAASGFTINIDYWISWVRQAPGKGLEWIGIIDPGDGTTYFAIWVSGRFTISFDNSKNTVYLQMNSLRAEDTAVYFCVREFSASAYQYDLWGPGTLVTVSSASTKGPSVFPLAPSSKSTSGGTAALGCLVKDYFPEPVTVSWNSGALTSGVHTFPAVLQSSGLYSLSSVVTVPSSSLGTQTYICNVNHKPSNTKVDKKVEPKSCDKTHTCPPCPAPELLAGPSVFLFPPKPKDTLMISRTPEVTCVVVDVSHEDPEVKFNWYVDGVEVHNAKTKPREEQYNSTYRVVSVLTVLHQDWLNGKEYKCKVSNKALPLPEEKTISKAKGQPREPQVYTLPPSRDELTKNQVSLSCAVKGFYPSDIAVEWESNGQPENNYKTTPPVLDSDGSFFLVSKLTVDKSRWQQGNVFSCSVMHEALHNHYTQKSLSLSPGK
heavy 2: DIQMTQSPSSLSASVGDRVTITCQASESVDRNNRLAWFQQKPGKPPKLLIYTTSTLASGVPSRFSGSGSGTDFTLTISSLQPEDVATYYCAGYRGAHTDGDAFGGGTKVEIKGGGGSGGGGSGGGGSGGGGSEQQLVESGGGLVKPGGSLRLSCAASGFSFSRSSYMCWVRQAPGKGLEWIGCLSVGDGHTYYASWAKGRFTISKDSAKNSVYLQMNSLRAEDTAVYFCARAPSYSGDGGHGYDLWGPGTLVTVSSDKTHTCPPCPAPELLAGPSVFLFPPKPKDTLMISRTPEVTCVVVDVSHEDPEVKFNWYVDGVEVHNAKTKPREEQYNSTYRVVSVLTVLHQDWLNGKEYKCKVSNKALPLPEEKTISKAKGQPREPQVYTLPPSRDELTKNQVSLWCLVKGFYPSDIAVEWESNGQPENNYKTTPPVLDSDGSFFLYSKLTVDKSRWQQGNVFSCSVMHEALHNHYTQKSLSLSPGK
light: ELVMTQSPATLSVSPGERATLSCRASEDIENYLAWYQQKPGQPPRLLIYRASTLSSGVPARFSGSGSGTEFTLTISSLQSEDFAVYYCQQGYRNSNVDNPFGGGTKVEIKRTVAAPSVFIFPPSDEQLKSGTASVVCLLNNFYPREAKVQWKVDNALQSGNSQESVTEQDSKDSTYSLSSTLTLSKADYEKHKVYACEVTHQGLSSPVTKSFNRGEC
IC50 (nM), killing of endogenous B cells by PBMCs, Donor 234 [2]: 0.0178 nM
IC50 (nM), Ramos cell killing by PBMCs (test 2), Donor 234 [3]: 0.00472 nM
IC50 (nM), Ramos cell killing by M0 macrophages, Donor 022 [4]: 0.002 nM
IC50 (nM), Ramos cell killing by M2 macrophages, Donor 022 [5]: 0.002 nM

B4: CD79b/5C7 (1+1 A) Fc-optimized (bispecific antibody, human IgG1, kappa)
heavy 1: EQQLVETGGGLIQPGGSLRLSCAASGFTINIDYWISWVRQAPGKGLEWIGIIDPGDGTTYFAIWVSGRFTISFDNSKNTVYLQMNSLRAEDTAVYFCVREFSASAYQYDLWGPGTLVTVSSASTKGPSVFPLAPSSKSTSGGTAALGCLVKDYFPEPVTVSWNSGALTSGVHTFPAVLQSSGLYSLSSVVTVPSSSLGTQTYICNVNHKPSNTKVDKKVEPKSCDKTHTCPPCPAPELLAGPSVFLFPPKPKDTLMISRTPEVTCVVVDVSHEDPEVKFNWYVDGVEVHNAKTKPREEQYNSTYRVVSVLTVLHQDWLNGKEYKCKVSNKALPLPEEKTISKAKGQPREPQVYTLPPSRDELTKNQVSLSCAVKGFYPSDIAVEWESNGQPENNYKTTPPVLDSDGSFFLVSKLTVDKSRWQQGNVFSCSVMHEALHNHYTQKSLSLSPGK
heavy 2: EQQLVESGGGLVKPGGSLRLSCAASGFSFSRSSYMCWVRQAPGKGLEWIGCLSVGDGHTYYASWAKGRFTISKDSAKNSVYLQMNSLRAEDTAVYFCARAPSYSGDGGHGYDLWGPGTLVTVSSASTKGPSVFPLAPSSKSTSGGTAALGCLVKDYFPEPVTVSWNSGALTSGVHTFPAVLQSSGLYSLSSVVTVPSSSLGTQTYICNVNHKPSNTKVDKKVEPKSCDKTHTCPPCPAPELLAGPSVFLFPPKPKDTLMISRTPEVTCVVVDVSHEDPEVKFNWYVDGVEVHNAKTKPREEQYNSTYRVVSVLTVLHQDWLNGKEYKCKVSNKALPLPEEKTISKAKGQPREPQVYTLPPSRDELTKNQVSLWCLVKGFYPSDIAVEWESNGQPENNYKTTPPVLDSDGSFFLYSKLTVDKSRWQQGNVFSCSVMHEALHNHYTQKSLSLSPGK
light 1: ELVMTQSPATLSVSPGERATLSCRASEDIENYLAWYQQKPGQPPRLLIYRASTLSSGVPARFSGSGSGTEFTLTISSLQSEDFAVYYCQQGYRNSNVDNPFGGGTKVEIKRTVAAPSVFIFPPSDEQLKSGTASVVCLLNNFYPREAKVQWKVDNALQSGNSQESVTEQDSKDSTYSLSSTLTLSKADYEKHKVYACEVTHQGLSSPVTKSFNRGEC
light 2: DIQMTQSPSSLSASVGDRVTITCQASESVDRNNRLAWFQQKPGKPPKLLIYTTSTLASGVPSRFSGSGSGTDFTLTISSLQPEDVATYYCAGYRGAHTDGDAFGGGTKVEIKRTVAAPSVFIFPPSDEQLKSGTASVVCLLNNFYPREAKVQWKVDNALQSGNSQESVTEQDSKDSTYSLSSTLTLSKADYEKHKVYACEVTHQGLSSPVTKSFNRGEC
IC50 (nM), Ramos cell killing by PBMCs (test 2), Donor 234 [3]: 0.338 nM

B5: CD79b/5C7 (2+2 A) Fc-silenced (bispecific antibody, human IgG1, kappa, L234A L235A)
heavy: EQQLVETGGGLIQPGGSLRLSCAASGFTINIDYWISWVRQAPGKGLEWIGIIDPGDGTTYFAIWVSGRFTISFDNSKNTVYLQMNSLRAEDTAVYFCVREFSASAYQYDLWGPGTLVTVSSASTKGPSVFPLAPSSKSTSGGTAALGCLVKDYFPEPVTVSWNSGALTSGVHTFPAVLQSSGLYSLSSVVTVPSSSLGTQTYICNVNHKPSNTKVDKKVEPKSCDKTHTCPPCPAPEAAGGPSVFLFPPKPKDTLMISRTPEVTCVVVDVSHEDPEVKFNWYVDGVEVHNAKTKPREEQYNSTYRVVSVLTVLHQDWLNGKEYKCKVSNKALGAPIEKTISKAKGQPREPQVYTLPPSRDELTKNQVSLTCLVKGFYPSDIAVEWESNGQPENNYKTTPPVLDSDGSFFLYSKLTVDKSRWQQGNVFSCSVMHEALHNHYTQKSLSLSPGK
light: ELVMTQSPATLSVSPGERATLSCRASEDIENYLAWYQQKPGQPPRLLIYRASTLSSGVPARFSGSGSGTEFTLTISSLQSEDFAVYYCQQGYRNSNVDNPFGGGTKVEIKRTVAAPSVFIFPPSDEQLKSGTASVVCLLNNFYPREAKVQWKVDNALQSGNSQESVTEQDSKDSTYSLSSTLTLSKADYEKHKVYACEVTHQGLSSPVTKSFNRGECGGGGSGGGGSGGGGSDIQMTQSPSSLSASVGDRVTITCQASESVDRNNRLAWFQQKPGKPPKLLIYTTSTLASGVPSRFSGSGSGTDFTLTISSLQPEDVATYYCAGYRGAHTDGDAFGGGTKVEIKGGGGSGGGGSGGGGSGGGGSEQQLVESGGGLVKPGGSLRLSCAASGFSFSRSSYMCWVRQAPGKGLEWIGCLSVGDGHTYYASWAKGRFTISKDSAKNSVYLQMNSLRAEDTAVYFCARAPSYSGDGGHGYDLWGPGTLVTVSS
IC50 (nM), Ramos cell killing by M0 macrophages, Donor 159 [4]: 0.002 nM
IC50 (nM), Ramos cell killing by M0 macrophages, Donor 161 [4]: 0.0006 nM

B6: h3A7, humanized anti-CLEC5A antibody (antibody, V domains shown)
VH: EQQLLESGGGLVQPGGSLRLSCAASGFSFSGMYWICWVRQAPGKGLEWIACIYTGSSTTGYASWAKGRFTISKDSSKNTVYLQMNSLRAEDTAVYFCASPYGDSSHYRGLNLWGPGTLVTVSS
VL: DVQMTQSPSSLSASVGDRVTITCQASQRINNYLSWFQQKPGKPPKLLIYGAATLASGVPSRFSGSGSGTDYTLTISSLQPEDVATYYCQCTYGIPSSNYGFGGGTKVEIK
notes: also called humanized 3A7
EC50 [1]: 0.47 nM

B7: h7G10, humanized anti-CLEC5A antibody (antibody, V domains shown)
VH: EQQLVESGGGVVQPGRSLRLSCAASGFSFSSGYDMCWVRQAPGKGLEWIACIYGGRSDNVYYARWAKGRFTISKDSSTNTVFLQMNSLRAEDTAVYFCARDYLYRGYIGGGYGRSNLWGPGTLVTVSS
VL: DVQMTQSPSSVSASVGDRVTITCRASEDIENCLAWYQQKPGKPPKLLIYQASKLPSGVPSRFSGSGSGTDYTLTISSLQPEDFATYYCQNPDYMRNTDNLFGGGTKVEIK
notes: also called humanized 7G10
EC50 [1]: 0.22 nM

B8: h5C7, humanized anti-CLEC5A antibody (antibody, V domains shown)
VH: EQQLVESGGGLVKPGGSLRLSCAASGFSFSRSSYMCWVRQAPGKCLEWIGCLSVGDGHTYYASWAKGRFTISKDSAKNSVYLQMNSLRAEDTAVYFCARAPSYSGDGGHGYDLWGPGTLVTVSS
VL: DIQMTQSPSSLSASVGDRVTITCQASESVDRNNRLAWFQQKPGKPPKLLIYTTSTLASGVPSRFSGSGSGTDFTLTISSLQPEDVATYYCAGYRGAHTDGDAFGCGTKVEIK
notes: also called humanized 5C7
EC50 [1]: 0.44 nM
